Test results reported in publication PMC4454446.
Read-outs that look alike come from different tables or passages of the source.

B1: Fab fragment of mouse monoclonal antibody 10D10 (Fab, V domains shown)
VH: QVQLQQSGPELVRPGASVKMSCKASGYTFTNYWMHWVKQRPGQALEWIGMIDPSKSETTLNQKFRGKATLNVDKSSNTAYMQLSSLTSEDSAVYYCAREVYYFDYWGQGTTLTVSS
VL: DIQMTQSPASLSASVGETVTITCRASENIYSYLTWYQQKQGKSPQLLVYNAKTLTEGVPSRFSGSGSGTQFSLKINSLQPEDFGGYFCQHHYGTPPTFGGGTKLEVK

What was measured:
[1] = molecular target: chicken bestrophin-1 crystallization construct, amino acids 1-405 (Best1_(cryst)) (chicken (Gallus gallus)); experiment: crystal structure
[2] = molecular target: chicken bestrophin-1 crystallization construct, amino acids 1-405 (Best1_(cryst)) (chicken (Gallus gallus)); experiment: SEC
[3] = molecular target: chicken bestrophin-1 crystallization construct, amino acids 1-405 (Best1_(cryst)) (chicken (Gallus gallus)); experiment: SEC; remark: listed apart in the source

| Molecule | stoichiometry N [1] | Kd [2] | Kd [3] |
| --- | --- | --- | --- |
| chicken bestrophin-1 crystallization construct, amino acids 1-405 (Best1_(cryst)) (domain or fragment) | 5 | – | – |
| B1 | – | 15 nM | 350 nM |
